# No end group written: not given here. *: point of attachment. Palmitoyl = CCCCCCCCCCCCCCCC(=O)*
# Target: recombinant APP N-terminal (18-612) fragment (UniProt P05067-4 18-612)
# Experiment: SPR
# Sequence of recombinant APP N-terminal (18-612) fragment (P05067 other isoform, or with tags, fused parts or gaps): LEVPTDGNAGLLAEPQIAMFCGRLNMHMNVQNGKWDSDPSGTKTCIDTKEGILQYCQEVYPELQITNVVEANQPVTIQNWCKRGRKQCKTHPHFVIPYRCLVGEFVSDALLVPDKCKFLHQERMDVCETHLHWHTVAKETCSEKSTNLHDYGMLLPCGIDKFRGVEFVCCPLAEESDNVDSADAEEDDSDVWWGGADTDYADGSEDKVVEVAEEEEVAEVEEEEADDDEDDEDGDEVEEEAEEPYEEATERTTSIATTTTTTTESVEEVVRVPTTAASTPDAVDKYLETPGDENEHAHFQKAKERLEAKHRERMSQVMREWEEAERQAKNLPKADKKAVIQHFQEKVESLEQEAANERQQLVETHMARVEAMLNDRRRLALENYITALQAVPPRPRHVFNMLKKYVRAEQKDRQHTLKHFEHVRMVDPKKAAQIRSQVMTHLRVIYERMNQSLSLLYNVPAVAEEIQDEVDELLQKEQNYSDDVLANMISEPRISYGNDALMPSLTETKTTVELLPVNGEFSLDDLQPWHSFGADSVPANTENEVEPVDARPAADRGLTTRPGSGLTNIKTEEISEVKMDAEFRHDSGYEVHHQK
binder,measurement,value
KKKKKKLKVRLASHLRK(Palmitoyl)ELRKRLLRDA [AY51 peptide],koff,0.000356 s⁻¹
